Columns and labels:
[1] = biological target: BaPif1 F379A (Bacteroides fragilis (title/abstract: Bacteroides sp)) (UniProt A0A373G551); test: fluorescence polarization; conditions: Fluorescence polarization: 2.5 nM T15-3'F, buffer and temperature not in the material; crystals: 80 mM NaCl, 40 mM sodium cacodylate pH 6.0, 35% MPD, 12 mM …
[2] = biological target: BaPif1 H236A (Bacteroides fragilis (title/abstract: Bacteroides sp)) (UniProt A0A373G551); test: fluorescence polarization; conditions: Fluorescence polarization: 2.5 nM T15-3'F, buffer and temperature not in the material; crystals: 80 mM NaCl, 40 mM sodium cacodylate pH 6.0, 35% MPD, 12 mM …
[3] = biological target: BaPif1 wild type (Bacteroides fragilis (title/abstract: Bacteroides sp)) (UniProt A0A373G551); test: fluorescence polarization; conditions: Fluorescence polarization: 2.5 nM T15-3'F, buffer and temperature not in the material; crystals: 80 mM NaCl, 40 mM sodium cacodylate pH 6.0, 35% MPD, 12 mM …
BaPif1 [4] = conditions: ssDNA-stimulated ATPase
BaPif1, sequence (5FHD_1 entry or part of it E323K): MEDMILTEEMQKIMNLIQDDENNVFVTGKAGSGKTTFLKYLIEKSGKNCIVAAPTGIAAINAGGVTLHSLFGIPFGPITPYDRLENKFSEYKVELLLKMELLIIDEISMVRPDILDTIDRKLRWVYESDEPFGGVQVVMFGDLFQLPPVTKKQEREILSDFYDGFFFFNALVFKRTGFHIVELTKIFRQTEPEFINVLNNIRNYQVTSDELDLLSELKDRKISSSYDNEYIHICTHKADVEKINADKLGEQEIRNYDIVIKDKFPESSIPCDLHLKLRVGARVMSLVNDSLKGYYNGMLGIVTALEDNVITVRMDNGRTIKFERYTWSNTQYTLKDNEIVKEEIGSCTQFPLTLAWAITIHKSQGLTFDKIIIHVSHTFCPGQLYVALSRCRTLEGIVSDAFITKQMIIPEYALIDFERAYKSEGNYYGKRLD

BaPif1 [5] = biological target: BaPif1 (Bacteroides fragilis, UniProt Z9XEH3VG65); conditions: ssDNA-stimulated ATPase
[6] = biological target: BaPif1 E323A/K405A (Bacteroides sp (abstract); Bacterioides fragilis (methods))

TTTTTTTTTTTTTTT [T15-3'F]
Kd [1]: 250 nM
Kd [2]: 200 nM
Kd [3]: 74 nM

Nc1ncnc2c1ncn2[C@@H]1O[C@H](COP(=O)(O)OP(=O)(O)OP(=O)(O)O)[C@@H](O)[C@H]1O [ATP]
ATP hydrolysis rate (BaPif1 [4]): The rates of ATP hydrolysis by both the E323A/K405A and E323K variants
ATP hydrolysis rate (BaPif1 [5]): only slightly increased relative to the wild type enzyme

BaPif1 E323A/K405A (enzyme)
rate of unwinding of the leading duplex (rapid chemical quench flow, single turnover) [6]: 33 s⁻¹
rate of unwinding of the parental duplex (rapid chemical quench flow, single turnover) [6]: 31 s⁻¹

— publication PMC6879534, “Structural basis for DNA unwinding at forked dsDNA by two coordinating Pif1 helicases” (Nature Communications, 2019)
